In patent publication US20250002585A1 (CENTESSA PHARMACEUTICALS UK, published 2025) one finds Kd data, which are given here for 1 molecule.

In the assay the target is T1, mouse CD47 (SPR analyte) (mouse, UniProt Q61735 19-140, limits assumed).
T1 sequence (looked up): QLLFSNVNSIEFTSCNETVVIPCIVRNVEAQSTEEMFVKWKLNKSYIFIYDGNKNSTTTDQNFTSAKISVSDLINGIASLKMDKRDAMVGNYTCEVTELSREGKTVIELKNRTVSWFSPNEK
The assay is described as follows: SPR (Biacore T200), 25 C; Fab captured by anti-human Fab, mouse CD47 as analyte; steady state.

Description: HBS-P+ supplemented with 0.1% BSA was used as running buffer as well as for ligand and analyte dilutions. […] Ligand was captured at a flow rate of 10 μl/min to give an immobilisation level (RL) of ˜ 60 RU. The surface was then allowed to stabilise. Multi-cycle kinetic data was obtained using either human or mouse CD47 as the analyte injected at a flow rate of 30 μl/min. […] For each concentration, the association phases were monitored for 180 seconds, and the dissociation phase was measured for 300 seconds. Regeneration of the sensor chip surface was conducted between cycles using 10 mM glycine pH 2.1. The signal from the reference channel Fcl (no ligand captured) was subtracted from that of Fc2-4 to correct for bulk effect and differences in non-specific binding to a reference surface. The signal from each CD47 blank run (ligand captured but no antigen) was subtracted to correct for differences in surface stability. […] Mouse CD47 binding was analysed using steady state analysis.

B1: positive control anti-CD47 Fab (recombinant Fab using the variable domain sequences used in LB101) (Fab, V domains shown)
VH: QVQLVQSGAEVKKPGESLKISCKGSGYTFTNYYIFWVRQMPGKGLEWMGIINPVDGDTNYNPSFQGQVTISADKSISTAYLQWSSLKASDTAMYYCARGGYTMDRWGQGTLVTVSS
VL: DIVMTQSPLSLPVTPGEPASISCRSSQSLLHSNGYNYLHWYLQKPGQSPQLLIYKVSNRFSGVPDRFSGSGSGTDFTLKISRVEAEDVGVYYCFQNTHTPRTFGGGTKVEIK
As a reminder, the Kd is the concentration at which binding is half-saturated. Higher therefore signals a looser complex. Consider B1, for which binding was put at a Kd of 165 nM.
